Reference: article doi:10.1101/2023.02.27.530324v2

Key:
[1] = substrate: CCCCCC=O; assay: in vivo luminescence of E. coli cells, aldehyde titration, nonlinear fit; type: cell-based, Photorhabdus luminescens; settings: whole E. coli K12 MG1655 pABX cells; apparent constant; cellular FMNH2 and O2
[2] = substrate: CCCCCCCCC=O; assay: as above; type: cell-based, Photorhabdus luminescens; settings: whole E. coli K12 MG1655 pABX cells; apparent constant; cellular FMNH2 and O2

B1: PlLuxAB (Photorhabdus luminescens) (protein)
chain: MKFGNFLLTYQPPQFSQTEVMKRLVKLGRISEECGFDTVWLLEHHFTEFGLLGNPYVAAAYLLGATKKLNVGTAAIVLPTAHPVRQLEDVNLLDQMSKGRFRFGICRGLYNKDFRVFGTDMNNSRALAECWYGLIKNGMTEGYMEADNEHIKFHKVKVNPAAYSRGGAPVYVVAESASTTEWAAQFGLPMILSWIINTNEKKAQLELYNEVAQEYGHDIHNIDHCLSYITSVDHDSIKAKEICRKFLGHWYDSYVNATTIFDDSDQTRGYDFNKGQWRDFVLKGHKDTNRRIDYSYEINPVGTPQECIDIIQKDIDATGISNICCGFEANGTVDEIIASMKLFQSDVMPFLKEKQRSLLY
Km [1]: 7 ± 2 mM | Km [2]: 0.025 ± 0.002 mM
